Measurements as given in patent US20190359719A1 (published 2019).
Numbering of substitutions follows the chain as printed. Where two headings read alike, the source gives them in different places.

T1: recombinant c-Met extracellular domain (R&D Systems cat#358-MT-100/CF) (UniProt P08581 25-932)
T1 chain: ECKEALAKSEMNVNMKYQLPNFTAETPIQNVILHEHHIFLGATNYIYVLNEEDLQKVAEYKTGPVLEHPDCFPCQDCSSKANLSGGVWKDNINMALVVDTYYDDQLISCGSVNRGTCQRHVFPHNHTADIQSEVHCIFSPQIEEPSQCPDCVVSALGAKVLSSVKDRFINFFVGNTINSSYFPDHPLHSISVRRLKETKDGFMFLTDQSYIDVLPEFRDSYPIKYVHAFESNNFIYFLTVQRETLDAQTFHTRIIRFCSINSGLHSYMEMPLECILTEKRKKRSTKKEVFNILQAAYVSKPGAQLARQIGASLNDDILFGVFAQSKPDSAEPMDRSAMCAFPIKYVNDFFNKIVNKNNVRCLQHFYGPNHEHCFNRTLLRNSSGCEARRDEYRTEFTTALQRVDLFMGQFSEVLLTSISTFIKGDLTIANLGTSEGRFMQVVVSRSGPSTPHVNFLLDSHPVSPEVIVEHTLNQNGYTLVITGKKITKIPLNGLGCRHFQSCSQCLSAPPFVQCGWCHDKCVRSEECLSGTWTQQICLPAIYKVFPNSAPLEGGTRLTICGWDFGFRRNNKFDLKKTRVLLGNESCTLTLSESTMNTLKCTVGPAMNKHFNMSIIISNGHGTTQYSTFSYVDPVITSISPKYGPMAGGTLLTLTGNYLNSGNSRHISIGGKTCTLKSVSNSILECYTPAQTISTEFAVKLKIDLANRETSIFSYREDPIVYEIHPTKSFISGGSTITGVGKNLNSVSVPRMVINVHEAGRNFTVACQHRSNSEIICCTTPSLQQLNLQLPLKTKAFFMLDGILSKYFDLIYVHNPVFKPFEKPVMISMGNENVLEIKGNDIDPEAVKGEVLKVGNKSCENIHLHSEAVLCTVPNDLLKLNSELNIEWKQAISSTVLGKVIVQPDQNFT

B1: E1 anti-c-Met antibody in IgG format (antibody, V domains shown)
VH: QVQLVQSGAEVKKPGASVKVSCKTSGYTFSGDYMHWVRQAPGQGLEWMGWINPNSGGTNYAQKFQGRVTMTRDTSISTAYMELSRLRSDDTAVYYCAREPGRDYYYYDGMDVWGQGTTVTVSS
VL: QSVVTQPPSVSGAPGQRVTISCTGSSSNIGAGYDVHWYQQLPGTVPKLLIYGNSNRPSGVPDRFSGSKSGTSASLAITGLQAEDEADYYCQSYDSSLSAYVFGTGTKVTVL
B2: B12 anti-c-Met antibody in IgG format (antibody, V domains shown)
VH: QVQLVESGAEVKKPGASVKVSCKASGYTFTGYYMHWVRQAPGQGLEWMGWINPNSGNTGYAQKFQGRVTMTRNTSISTAYMELSSLRSEDTAVYYCARRGTTVSFDYWGQGTTVTVSS
VL: QAVLTQPPSVSGSPGQSITISCTGTSSDVGTFNLVSWYQQHPGKAPKLIIYEVSKRPSDVSPRYSGSKSGTTASLTISVLQTEDEADYYCCSYTTSSSYVFGIGTKVTVL
B3: A1 anti-c-Met antibody in IgG format (antibody, V domains shown)
VH: QVQLQESGPGLVKPSQTLSLTCTVSGGSISSGGYYWSWIRQHPGKGLEWIGEINHSGSTNYNPSLKSRVTISVDTSKNQFSLKLSSVTAADTAVYYCARGRDGYDFDPWGQGTLVTVSS
VL: LPVLTQPASVSGSPGQSITISCTGTSSDVGGYNYVSWYQQHPGKAPKLMIYDVSDRPSGVSTRFSGSKSGNTASLTISGLQAEDEADYYCSSYRSSSALVVFGGGTKLTVL
B4: F3 anti-c-Met antibody in IgG format (antibody, V domains shown)
VH: QVQLVESGPGLVKPSGTLSLTCAVSGGSISSSNWWSWVRQPPGKGLEWIGEIYHSGSTNYNPSLKSRVTISVDKSKNQFSLKLSSVTAADTAVYYCARSAYGDYFLDYWGQGTLVTVSS
VL: B3 VL with L1Q, P2S, M49L, S54D, D55S, T62N, Y93F, R94T, A98T, L108V
B5: A8 (antibody, V domains shown)
VH: QITLKESGAEVKKPGSSVKVSCKASGGTFSSYGISWVRQAPGQGLEWMGGIIPMFGTANYAQKFQGRVTITADESTSTAYMELSSLRSEDTAVYYCARDEVAPDYYGSGPSYGMDVWGQGTMVTVSS
VL: SYELMQPASVSGSPGQSITISCTGTSSDVGGYDHVSWYQQHPGKAPKLMIYAVRNRPSGVPDRFSGSKSGNTASLTISGLQAEDEADYYCSSYTSSLTYVFGTGTKVTVL

Columns and labels:
[1] = target: T1, recombinant c-Met extracellular domain …; experiment: Biacore SPR
[2] = target: T1, recombinant c-Met extracellular domain …; experiment: ELISA, blocking of HGF binding to c-Met
[3] = target: T1, recombinant c-Met extracellular domain …; experiment: Octet Red (BLI)
[4] = target: T1, recombinant c-Met extracellular domain …; experiment: Biacore SPR
[5] = target: T1, recombinant c-Met extracellular domain …; experiment: Octet Red (BLI)
[6] = target: T1, recombinant c-Met extracellular domain …; experiment: Octet Red (BLI)
[7] = target: T1, recombinant c-Met extracellular domain …; experiment: ELISA, blocking of HGF binding to c-Met

Row | Binder | Ka [1] [M⁻¹] | Kd [4] [nM] | Kd [5] [nM] | Kd [6] [nM] | further results
1 | B1 | 5.37e+07 | 18.6 |  |  | IC50 [2]: 3.18 nM; Kd [3]: 4.5 nM
2 | B2 |  |  | 0.15 |  | 
3 | B3 | 5.3e+08 | 1.98 |  | 0.8 | IC50 [7]: 1.73 nM
4 | B4 |  |  | 0.7 |  | 
5 | B5 |  |  |  | 1.5 | 
